Reference: paper PMC4751342

Key:
[1] = target: human Izumo1, immobilized AVEXIS bait, Q8IYV9; test: AVEXIS; details: chain shown with the change;; parent: est. 0.16; read off a plot
[2] = target: T1, mouse Izumo1, immobilized AVEXIS bait, Q9D9J7; test: AVEXIS; details: chain shown with the change;; parent: est. 0.51; read off a plot
T1 chain: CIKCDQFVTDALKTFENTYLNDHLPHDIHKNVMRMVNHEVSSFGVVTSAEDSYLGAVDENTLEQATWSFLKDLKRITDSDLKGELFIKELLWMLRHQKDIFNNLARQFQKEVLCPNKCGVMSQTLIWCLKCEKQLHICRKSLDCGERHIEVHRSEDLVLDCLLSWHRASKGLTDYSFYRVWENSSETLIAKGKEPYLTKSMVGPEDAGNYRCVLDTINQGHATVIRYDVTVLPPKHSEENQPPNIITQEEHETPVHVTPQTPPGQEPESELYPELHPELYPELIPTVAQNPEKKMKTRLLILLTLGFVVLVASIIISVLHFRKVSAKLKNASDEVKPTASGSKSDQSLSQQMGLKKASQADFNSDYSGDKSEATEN

Sequence of human Izumo1, immobilized AVEXIS bait, Q8IYV9 (Q8IYV9 22-350): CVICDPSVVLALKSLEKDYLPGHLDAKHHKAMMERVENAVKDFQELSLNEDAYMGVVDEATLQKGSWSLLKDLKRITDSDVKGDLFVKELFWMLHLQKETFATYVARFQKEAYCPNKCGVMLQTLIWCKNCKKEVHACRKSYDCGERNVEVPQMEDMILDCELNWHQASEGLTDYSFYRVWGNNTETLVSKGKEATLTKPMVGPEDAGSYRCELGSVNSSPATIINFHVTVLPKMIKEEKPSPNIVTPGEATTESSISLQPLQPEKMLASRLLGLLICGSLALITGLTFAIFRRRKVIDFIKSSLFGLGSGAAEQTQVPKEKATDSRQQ

B1: mouse Juno, wild type, AVEXIS prey, Q9EQF4 N185S (protein)
chain: GDKLLSVCMNSKRHKQEPGPEDELYQECRPWEDNACCTRSTSWEAHLEEPLLFNFSMMHCGLLTPACRKHFIQAICFHECSPNLGPWIQPVVPNGQEEQRVWGVPLCQEDCEDWWRACHSSLTCKSNWLHGWDWSEEKKHCPAHEPCLPFSYHFPTPDDLCEKIWSNTFKASPERRNSGRCLQKWFEPTLSNPNVEVALHFAG
[1]
  response: 0.17 A 485 nm
[2]
  response: 0.5 A 485 nm
